# Reference: patent US20030113828
# Target: integrin αIIbβ3 (wild type) (UniProt P08514)
substance,measurement,value
Syk truncation mutant (residues 1-330),adhesion dependent phosphorylation of Vav1,Over expression of Syk(1-330) also inhibited adhesion dependent phosphorylation of Vav1
